Results on 16 molecules are retold here after patent publication US20250019450A1 (DIAGONAL THERAPEUTICS, published 2025).

Where a chain is given by its changes, count along the chain named.

B1: 85801_03P23 (antibody, V domains shown)
VH: EVQLVESGGGLVQPGGSLRLSCAASGFTFSSYWMSWVRQAPGKGLEWVANIKQDGSEKYYVDSVKGRFTISRDNAKNSLYLQMNSLRAEDTAVYYCARGSIAAPFDYWGQGTLVTVSS
VL: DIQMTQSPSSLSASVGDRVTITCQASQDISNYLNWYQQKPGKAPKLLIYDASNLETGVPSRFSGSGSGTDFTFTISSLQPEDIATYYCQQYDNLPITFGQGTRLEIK
notes: also called 85801_03P23A
B2: 85801_10M19 (antibody, V domains shown)
VH: EVQLVESGGGLVQPGGSLRLSCAASGFTFSSYDMHWVRQATGKGLEWVSVIGTAGDTYYPGSVKGRFTISRENAKNSLYLQMNSLRAGDTAVYYCARSRGETDWYFDLWGRGTLVTVSS
VL: EIVLTQSPATLSLSPGERATLSCRASQSVSRLLAWYQQKPGQAPRLLIYDASNRATGIPARFSGSGSGTDFTLTISSLEPEDFAVYYCQQRRNWLTFGGGTKVEIK
notes: also called 85801_10M19A
B3: 85801_07A01 (antibody, V domains shown)
VH: EVQLVESGGGLVQPGGSLRLSCAASGFTFSSYWMSWVRQAPGKGLEWVANIKQDGSEKYYVDSVKGRFTISRDNAKNSLYLQMNSLRAEDTAVYYCAREGLQLGIFDYWGQGTLVTVSS
VL: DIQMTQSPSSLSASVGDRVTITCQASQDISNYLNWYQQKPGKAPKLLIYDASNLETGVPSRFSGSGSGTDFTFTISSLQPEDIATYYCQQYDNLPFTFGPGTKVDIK
notes: also called 85801_07A01A
B4: 85801_02011 (antibody, V domains shown)
VH: EVQLVESGGGLVQPGGSLRLSCAASGFTFSSYDMNWVRQAPGKGLEWISYINSRSSTIYYADSVKGRFTISRDNAKNSLYLQMNSLRDEDTALYYCAREIEDSMDVWGQGTTVTVSS
VL: QSVLTQPPSVSAAPGQKVTISCSGSSSNIGNNYVSWYQQLPGTAPKLLIYDNNERPSGIPDRFSGSKSGTSATLGITGLQPGDEADYYCGTWDSSLSAGVFGGGTKLTVL
notes: also called 85801_02O11A
B5: 85801_04M12 (antibody, V domains shown)
VH: QVQLVESGGGVVQPGRSLRLSCAASGFTFSSHGMHWVRQAPGKGLEWVAIIWYAGNKKYYADSVKGRFTISRDNSKNTLYLQMNSLRAEDTAVYYCARESLLNSASDIWGQGTMVTVSS
VL: B4 VL with K17T, E54K, P81T, G99V
notes: also called 85801_04M12A
B6: 85801_02K24 (antibody, V domains shown)
VH: QVQLQESGPGLVKPSETLSLTCTVSGGSISSYDWSWIRQSAGKGLEWIGRIYTSGSTIYNPSLKSRVTMSVDTSKNEISLKLSSVTAADTAFYYCAKDRGNYPHDAFDIWGQGTMITVSS
VL: DIQLTQSPSFLSASVGDRVTITCRASQGISSFLAWYQQKPGKAPKLLIYAASTLQSGVPSRFSGSGSGTEFTLTISSLQPEDFATYYCQQLNGYPFTFGPGTKVDIK
notes: also called 85801_02K24A
B7: 85801_04M10 (antibody, V domains shown)
VH: QVQLQESGPGLVKPSETLSLTCTVSGGSISSYYWSWIRQPAGTGLEWIGRFYTSGSTIYNPSLESRVTMSVDTSKNQFSLKLSSVTAADTAVYYCATERDYPHDAFDIWGQGTMVTVSS
VL: B6 VL with T22P, G28D, K45N, F96L, P100G, D105E
notes: also called 85801_04M10A
B8: 85801_02N03 (antibody, V domains shown)
VH: QVHLVQSGAEVKKPGASVKVSCEASGYTFTDYYIHWLRQAPGQGLEWMGWINPNSGGTHYAQKFQGRVTMTRDTSISTAYMELSRLSSDDTAVYYCAREGGWNYFSGMDVWGQGTTVTVSS
VL: B6 VL with F32Y, K39Q, A43P, Q55H, G93R, F96Y, F98C, P100Q, V104L, D105E
notes: also called 85801_02N03A
B9: 85801_04G23 (antibody, V domains shown)
VH: QVQLVESGGGVVQPGRSLRLSCAASGFTFSSYGMHWVRQAPGKGLEWVAVIWNDGSNKYYADSVKGRFTISRDNSKNTLYLQMNSLRAEDTAVYYCARGELFFDYWGQGTLVTVSS
VL: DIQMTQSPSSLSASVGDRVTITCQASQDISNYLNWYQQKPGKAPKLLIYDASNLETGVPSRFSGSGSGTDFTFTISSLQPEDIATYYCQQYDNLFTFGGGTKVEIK
notes: also called 85801_04G23A
B10: 85801_04M04 (antibody, V domains shown)
VH: QVQLVQSGAEVKKPGASVRVSCKASGYTFTSYYIHWVRQAPGQGLEWMGIINPSGGSTSYAQKFQGRVTMTRDTSTTTVYMELSSLRSEDTAVYYCAKSNWAYAFDIWGQGTMVTVSS
VL: SSELTQDPAVSVALGQTVRITCQGDSLSSYYAGWYQQKPGQAPVLVIYGKNNRPSGIPDRFSGSSSEDTASLTITGAQAEDEADYYCNSRDSSDNHLVFGGGTKLTVL
notes: also called 85801_04M04A
B11: 85801_04D10 (antibody, V domains shown)
VH: EVQLLESGGGLVQPGGSLRLSCAASGFTFSSYAMSWVRQAPGKGLEWVAGISGSGGGIYYADSVKGRFTISRDNSKNTLYLQLNSLRADDTAVYYCARRLIGYWYFDLWGRGTLVPVSS
VL: DIQMTQSPSSLSASVGDRVTITCRASQGISNYLAWFQQKPGKAPKSLIYAASSLQSGVPSKFSGSGSGTDFTLTISSLQPEDFATYYCQQYNSYPPTFGGGTKVEIK
notes: also called 85801_04D10A
B12: 85801_05G01 (antibody, V domains shown)
VH: QVQLVQSGAEVKKPGASAKVSCKASGYTFTDYYLHWVRQAPGQGLEWMGWINPNNGGTHYAQKFQGRVTMTRDTSISTAYMELSRLRSDDTAVYYCAREMGGTTAFDYWGQGTLVTVSS
VL: B11 VL with S30G, K39R, E81A, T85I, S93I, P96Y, G100P, K103R, V104L
notes: also called 85801_05G01A
B13: 85801_06L19 (antibody, V domains shown)
VH: QVQLVQSGAEVKKPGASVKVSCKASGYTFTDYYIHWVRQAPGQGLEWMGWINPDSGGTHYAQKFQGRVTMTRDTSISTVYMDLSRLRSDDTAVYYCAREGEGLASFDSWGQGTLVTVSS
VL: B11 VL with D17N, S30N, S93N, P96F, G100P, E105D
notes: also called 85801_06L19A
B14: 85801_10F19 (antibody, V domains shown)
VH: QVQLVQSGAEVRKPGASVKVSCKASGYTFTDYYMHWVRQAPGQGREWMGWINPNSGGTHYAQKFQGRVTMTWDTSISTAYMELSRLRSDDTAVYYCAREGATTVYFDYWGQGTLVTVSS
VL: DIQLTQSPSFLSASVGDRVTLTCRASQGINNYLAWYQEKPGKAPNPLIYDASTLQSGVPSRFSGSGSGTEFTLTISSLQPEDFATYYCQQLNMYPYTFGQGTKLEIK
notes: also called 85801_10F19A
B15: 85801_04D14 (antibody, V domains shown)
VH: QVHLVQSGAEVKKPGASVKVSCKASGYTFIDYYMHWVRQAPGQGLEWMGWINPNSGGTHYSQKFQGRVTMTWDTSISTAYMELSRLTSDDTAVYYCAREGDYISSSAFDYWGQGTLVTVSS
VL: DIQLTQSPSFLSASVGDRVTITCRASQGISSYLAWYQQKPGKAPKVLIYAASTLQSGVPSRFSGSGSGTEFTLTISSLLPEDFATYFCQQLHRYPYTFGQGAKLEIK
notes: also called 85801_04D14A
B16: 85801_05F05 (antibody, V domains shown)
VH: QVQLQQWGAGLLKPSETLSLTCAVYGGSFSGYYWNWIRQPPGKGLEWIGEINHSGSTHYNPSLKSRVTISVDTSKNQFSLKLSSVTAADTALYYCARALTGYFDYWGQGTLVTVSS
VL: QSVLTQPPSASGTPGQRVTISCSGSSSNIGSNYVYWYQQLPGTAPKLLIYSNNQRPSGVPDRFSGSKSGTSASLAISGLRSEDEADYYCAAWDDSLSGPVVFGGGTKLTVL
notes: also called 85801_05F05A

One assay concerns the target T1, cyno IL-12RB1 overexpressed on 293T cells (Example 2) (cyno, UniProt A0A2K5VWV1 24-662).
T1 construct: whole, on cells
Kind of assay: FACS, hybridoma supernatant, 293T.
For B1, the “Fold over parental 293T” value is 23 fold.

B2: the “Fold over parental 293T” value was 21 fold.

B3: the “Fold over parental 293T” value was 21 fold.

In the case of B4, the “Fold over parental 293T” value is 56 fold.

With B5, the “Fold over parental 293T” value amounted to 71 fold.

B6: the “Fold over parental 293T” value turned out to be 53 fold.

Regarding B7, the “Fold over parental 293T” value was determined as 122 fold.

On to B8, for which the “Fold over parental 293T” value came out at 85 fold.

Turning to B9, the “Fold over parental 293T” value was determined as 27 fold.

As to B10, the “Fold over parental 293T” value amounted to 195 fold.

For the molecule B11, the “Fold over parental 293T” value stood at 20 fold.

As to B12, the “Fold over parental 293T” value is 73 fold.

For B13, the “Fold over parental 293T” value was found to be 25 fold.

Turning to B14, the “Fold over parental 293T” value came to 16 fold.

With B15, the “Fold over parental 293T” value was determined as 44 fold.

In the case of B16, the “Fold over parental 293T” value worked out at 118 fold.

In another assay the target is T2, human IL-12RB1 overexpressed on 293T cells (Example 2) (human, UniProt P42701 24-662).
T2 construct: whole, on cells
Put plainly: FACS, hybridoma supernatant, 293T. (In general: Flow cytometry measures light scatter and fluorescence of single cells or particles in a stream.)
In the case of B1, the “Fold over parental 293T” value is 69 fold.

Regarding B2, the “Fold over parental 293T” value was 58 fold.

For B3, the “Fold over parental 293T” value worked out at 57 fold.

B4: the “Fold over parental 293T” value is 114 fold.

On to B5, for which the “Fold over parental 293T” value is 192 fold.

Regarding B6, the “Fold over parental 293T” value came out at 130 fold.

Regarding B7, the “Fold over parental 293T” value was determined as 336 fold.

Consider B8, for which the “Fold over parental 293T” value amounted to 221 fold.

With B9, the “Fold over parental 293T” value came out at 73 fold.

On to B10, for which the “Fold over parental 293T” value came to 620 fold.

With B11, the “Fold over parental 293T” value amounted to 76 fold.

For the molecule B12, the “Fold over parental 293T” value was 170 fold.

As for B13, the “Fold over parental 293T” value was 73 fold.

On to B14, for which the “Fold over parental 293T” value was found to be 41 fold.

As to B15, the “Fold over parental 293T” value was found to be 202 fold.

For the molecule B16, the “Fold over parental 293T” value was found to be 311 fold.

A further assay has as its target T3, IL-12 receptor endogenously expressed on THP-1 cells (UniProt P42701 24-662; Q99665 24-862).
T3 construct: whole, on cells
Kind of assay: FACS, hybridoma supernatant, THP-1.
B1 had a Fold over buffer of 39 fold.

The molecule B2 came in with a Fold over buffer of 35 fold.

As to B3, the Fold over buffer was 37 fold.

On to B4, for which the Fold over buffer stood at 35 fold.

Take B5: the Fold over buffer amounted to 45 fold.

The molecule B6 registered a Fold over buffer of 33 fold.

As for B7, the Fold over buffer is 36 fold.

Molecule B8 had a Fold over buffer of 41 fold.

On to B9, for which the Fold over buffer turned out to be 46 fold.

B10: the Fold over buffer came to 12 fold.

B11: the Fold over buffer stood at 42 fold.

B12 registered a Fold over buffer of 7 fold.

As to B13, the Fold over buffer stood at 9 fold.

For B14, the Fold over buffer is 8 fold.

Regarding B15, the Fold over buffer is 17 fold.

Regarding B16, the Fold over buffer amounted to 56 fold.
